Data taken from US20110004951A1, “METHODS AND COMPOSITIONS FOR IDENTIFYING COMPOUNDS THAT INHIBIT HIV-1 SUBUNIT-SPECIFIC REVERSE TRANSCRIPTASE” (UAB Research Foundation, The, priority 2004, published 2011).

Tests used:
[1] = biological target: T1, p51W401A/p66W401A trans-heterodimeric RT (Human immunodeficiency virus type 1 group M subtype B, UniProt P04585, W988A); experiment: Effects of NNRTIs on trans-RT subunit interaction: immunoblot of virion-associated p66 from transfected 293T cells; assay type: cell-based, HIV-1; settings: p51 W401A/p66 W401A RT mutants, FIG. 22
T1 construct: expressed in transfected cells; host or cells: 293T
Description: The dimerization enhancing NNRTI EFV was added to the culture medium 12 h after DNA transfection at concentrations ranging from 0.01-1.0 μM. The transfection-derived virions were collected 48 hours later and analyzed by immunoblot using mAbs to (A) RNase H and (B) CA.
At 24 h post-transfection, the specified concentrations of drug were added. […] The clarified supernatants were processed for and analyzed by immunoblot as described below.
Transfection-derived virions were concentrated by ultracentrifugation through 20% sucrose cushion (125,000×g, 2 hr, 4° C.) using a SW41 rotor (Beckman Inc.). […] The blocked blots were exposed to an appropriate primary antibody for 1 h in blocking buffer with constant mixing. After extension washing, bound antibodies were detected by chemiluminescence using horseradish peroxidase-conjugated species-specific secondary antibodies (Southern Biotechnology Associates, Inc.).

[2] = tested on: M7 virions complemented with wildtype trans-RT (Vpr-p51/p66); experiment: Inhibition of trans-RT using NRTI and NNRTI, TZM-b1 reporter cell infectivity assay; assay type: cell-based, HIV-1; settings: for antiviral effect, inhibition of infectivity: TZM-b1 indicator cells, 3TC 0.04, 0.2 and 1.0 μM, nevirapine 1.0, 5.0 and 5.0 μM as printed
Description: Virions derived by cotransfection with M7, vpr-p51/p66 and vpr-IN were used to infect the TZM-b1 reporter cell line. The two RT drugs, 3TC and nevirapine, were analyzed at concentrations of 0.04-1.0 μM for 3TC and 1.0-25.0 μM for nevirapine as described in Example 1. The results are expressed as a percentage of untreated virus.
The trans-heterodimer assay is of clinical relevance for analyzing HIV-1 RT inhibitors, drug resistance and the effects of drug resistance mutations on viral fitness. To examine the response of the trans-heterodimeric RT to anti-RT drugs, transfection-derived M7 virions complemented with wildtype trans-RT (Vpr-p51/p66) were used to infect the TZM-b1 indicator cells in the absence or presence of either 3TC (0.04, 0.2 and 1.0 μM) or nevirapine ([…]).
Virions were derived by cotransfection of 293T cells with M7, vpr-p51/p66 and vpr-IN. The TZM-b1 cells were seeded overnight in 24-well plates at a concentration of 40,000 cells in 250 μl of medium per well. The culture medium was removed and replaced with 250 μl of DMEM containing 1% FBS and 2× drug concentrations (5-fold dilutions). 250 μl of virus suspension normalized for equal IU, as determined by TZM-b1 assay (diluted in DMEM containing 1% FBS and 80 μg/ml DEAE-dextran), was then added to the cells. The two RT drugs used in this analysis, 3TC and nevirapine, were at final concentrations ranging from 0.04-1.0 μM and 1.0-25.0 μM, respectively. The cells were fixed 48 h post-infection, stained with X-gal reagent, and the blue-stained cells were counted using a light microscope as described above. The 50% inhibition concentration (IC50) was measured with a 95% confidence interval.

[3] = tested on: HIV-1 NL4-3 with L234A, W398A, W401A and YMAA mutations; experiment: Infectivity of HIV-1 NL4-3 proviral clones with RT mutations, with efavirenz (FIG. 23); settings: NL4-3 proviral clones with RT mutation, transfected into 293T cells
Description: Additional analysis of the W401A and W410A mutations was conducted in the context of the complete HIV-1 NL4-3 proviral clone. […] The non-infectious RT-minus M7 clone was included as negative control (lane 2). […] Probing a replica blot with mAb to CA confirmed that approximately the same amount of each virus was analyzed (FIG. 13C).

[4] = biological target: p66^L234A subunit of HIV-1 reverse transcriptase, expressed in trans (HIV-1 (pSG3)); experiment: cell-based or functional assay
[5] = biological target: p66^W401A subunit of HIV-1 reverse transcriptase, expressed in trans (HIV-1 (pSG3)); experiment: cell-based or functional assay
[6] = biological target: p66^W410A subunit of HIV-1 reverse transcriptase, expressed in trans (HIV-1 (pSG3)); experiment: cell-based or functional assay
[7] = biological target: p66 subunit of HIV-1 reverse transcriptase, expressed in trans with Met-Gly on the N-terminus (HIV-1 (pSG3)); experiment: cell-based or functional assay
[8] = biological target: p66^W410L subunit of HIV-1 reverse transcriptase, expressed in trans (HIV-1 (pSG3)); experiment: cell-based or functional assay

“2′,5′-bis-O-(tert-butyldimethylsilyl)-beta-D-ribofuranosyl 3′-spiro-5″-(4″-amino-1″,2″-oxathiole 2″,2″-dioxide) [TSAO]” was tested, and the “RT heterodimerization, destabilization” value [1] was “can destabilize HIV-1 RT heterodimerization”.

`Nc1ccn([C@@H]2CS[C@H](CO)O2)c(=O)n1` [3TC] was tested, and the “antiviral effect, inhibition of infectivity” value [2] was “potent, dosage-dependent antiviral effect”.

With `O=C1Nc2ccc(Cl)cc2[C@@](C#CC2CC2)(C(F)(F)F)O1` [efavirenz] the “rescue of infectivity of mutant virus” value [3] was “not rescued”.

With `Cc1ccnc2c1NC(=O)c1cccnc1N2C1CC1` [nevirapine] the IC50 ([2]; Human immunodeficiency virus 1, TZM-b1, 48 h, read-out: IC50, inhibition of infectivity) was 11 nM and the “antiviral effect, inhibition of infectivity” value [2] was “potent, dosage-dependent antiviral effect”.

Compound “Vpr-p51 fusion protein, wildtype, modified construct with 135 bps of PR sequence (45 amino acids) between Vpr and RT” has a virus infectivity, TZM-b1 reporter cells, percentage of wildtype trans heterodimer [4] of less than 5%, a virus infectivity, JLTRG-R5 reporter T cell line (EGFP), percentage of wildtype trans-RT [5] of 50% and a virus infectivity, TZM-b1 reporter cells, percentage of wildtype trans heterodimer [5] of 40%. For the same compound, the virus infectivity, TZM-b1 reporter cells, percentage of wildtype trans-RT [5] was 40%.

Vpr-p51^N363A fusion protein was tested, and the virus infectivity, TZM-b1 reporter cells, percentage of wildtype trans heterodimer [6] was 35%.

In the case of Vpr-p51^N363A;Y405A fusion protein, the virus infectivity, TZM-b1 reporter cells, percentage of wildtype trans heterodimer [7] is reported as 35%.

Work on Vpr-p51^W398A fusion protein yielded a virus infectivity, TZM-b1 reporter cells, percentage of wildtype trans-RT heterodimer [7] of less than 50%.

Compound Vpr-p51^W401A fusion protein has a virus infectivity, TZM-b1 reporter cells, percentage of wildtype trans heterodimer [6] of 40% and a virus infectivity, TZM-b1 reporter cells, percentage of wildtype trans heterodimer [8] of 40%.

Work on Vpr-p51^W401L fusion protein yielded a virus infectivity, TZM-b1 reporter cells, percentage of wildtype trans heterodimer [6] of 40%.

With Vpr-p51^W402A fusion protein the virus infectivity, TZM-b1 reporter cells, percentage of wildtype trans-RT heterodimer [7] was less than 50%.

For Vpr-p51^W406A fusion protein, the virus infectivity, TZM-b1 reporter cells, percentage of wildtype trans-RT heterodimer [7] was less than 50%.

Vpr-p51^W414A fusion protein was tested, and the virus infectivity, TZM-b1 reporter cells, percentage of wildtype trans-RT heterodimer [7] was less than 50%.

Compound Vpr-p51^Y405A fusion protein has a virus infectivity, TZM-b1 reporter cells, percentage of wildtype trans-RT heterodimer [7] of 50% and a virus infectivity, TZM-b1 reporter cells, percentage of wildtype trans heterodimer [6] of 25%.
